The source of these data is paper PMC6740199 (Molecular Biology of the Cell, 2019).

The target of the assay is T1, six-histidine-tagged Bem1 (His6-Bem1), carrying Bem1 residues from 44 to 551 (S. cerevisiae, UniProt P29366 44-551).
T1 sequence: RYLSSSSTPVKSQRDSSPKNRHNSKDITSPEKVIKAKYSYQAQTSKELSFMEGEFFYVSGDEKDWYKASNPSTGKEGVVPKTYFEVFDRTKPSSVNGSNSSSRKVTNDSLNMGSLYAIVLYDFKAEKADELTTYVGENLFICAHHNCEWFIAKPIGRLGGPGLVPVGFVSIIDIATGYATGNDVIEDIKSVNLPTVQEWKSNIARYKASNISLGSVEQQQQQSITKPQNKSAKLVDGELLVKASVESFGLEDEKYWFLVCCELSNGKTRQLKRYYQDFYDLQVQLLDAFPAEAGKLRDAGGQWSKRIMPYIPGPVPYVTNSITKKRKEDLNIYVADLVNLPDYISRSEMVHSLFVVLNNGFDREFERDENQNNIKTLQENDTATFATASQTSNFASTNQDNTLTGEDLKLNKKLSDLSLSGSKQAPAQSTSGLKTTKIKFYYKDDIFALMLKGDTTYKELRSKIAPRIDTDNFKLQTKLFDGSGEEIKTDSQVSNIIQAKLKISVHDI
Put plainly: pull-down.

B1: GST (glutathione S-transferase)-Rsr1 (natural protein)
chain: MRDYKLVVLGAGGVGKSCLTVQFVQGVYLDTYDPTIEDSYRKTIEIDNKVFDLEILDTAGIAQFTAMRELYIKSGMGFLLVYSVTDRQSLEELMELREQVLRIKDSDRVPMVLIGNKADLINERVISVEEGIEVSSKWGRVPFYETSALLRSNVDEVFVDLVRQIIRNEMESVAVKDARNQSQQFSKIESPSTRLPSSAKQDTKQSNNKQSSKGLYNKSSQGQAKVKQSTPVNEKHKPSHAVPKSGSSNRTGISATSQQKKKKKNASTCTIL
Turning to B1, the binding result is on record as “binds”.
